The values that follow come from patent US20160264664A1.

The target in assay [1] is human chemokine receptor CXCR4 (human) (UniProt P61073). The assay can be described thus: flow cytometry, 12G5 then PE goat anti-mouse IgG, on the stable CAKI/CXCR4 clone; the control panel CAKI WT prints MCF:1089. Background: Flow cytometry measures light scatter and fluorescence of single cells or particles in a stream.
Assay [2] has the same target. The assay can be described thus: flow cytometry, stable CXCR4 CAKI clone vs CAKI WT cells.
Assay [3] shares this target. Kind of assay: flow cytometry, pVAX1-hCXCR4 transfected HEK293 vs non-transfected HEK293 cells.
The target is the same in assay [4]. Kind of assay: flow cytometry, 12G5 then PE goat anti-mouse IgG, on HEK293 cells transiently transfected with pVAX1-CXCR4; the control panel HEK293 WT prints MCF:3918.
Assay [5] has as its target T1, mouse P2X7 (mouse) (UniProt Q9Z1M0).
T1 sequence: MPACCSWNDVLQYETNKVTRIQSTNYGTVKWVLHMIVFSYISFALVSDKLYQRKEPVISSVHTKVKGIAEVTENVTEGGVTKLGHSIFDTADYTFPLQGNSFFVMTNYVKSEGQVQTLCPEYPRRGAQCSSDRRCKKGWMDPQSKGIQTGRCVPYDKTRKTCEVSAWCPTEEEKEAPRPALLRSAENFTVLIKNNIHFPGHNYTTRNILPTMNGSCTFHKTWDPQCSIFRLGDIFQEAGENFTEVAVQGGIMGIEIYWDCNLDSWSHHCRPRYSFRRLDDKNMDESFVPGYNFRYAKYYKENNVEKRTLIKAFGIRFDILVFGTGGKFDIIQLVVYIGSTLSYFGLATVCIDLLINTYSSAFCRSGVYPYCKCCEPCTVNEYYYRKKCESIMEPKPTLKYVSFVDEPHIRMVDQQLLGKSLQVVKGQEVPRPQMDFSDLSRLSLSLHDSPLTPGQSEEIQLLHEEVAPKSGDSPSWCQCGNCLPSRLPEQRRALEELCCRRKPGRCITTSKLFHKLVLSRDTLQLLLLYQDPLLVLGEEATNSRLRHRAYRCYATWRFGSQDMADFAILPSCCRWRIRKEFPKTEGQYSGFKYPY
Kind of assay: cell-based or functional assay.

Assay [6] addresses human chemokine receptor CXCR4 (human) (UniProt P61073). The assay can be described thus: ELISA, periplasmic extract on CXCR4 membrane vesicles, anti-Myc detection. For orientation: An ELISA detects its analyte on a solid surface through an enzyme-linked reagent.
Assay [7] concerns the target T1, mouse P2X7 (mouse). Kind of assay: flow cytometry, purified Nanobody titrated on mP2X7-CHO cells.

Where “and” joins values, the source holds several entries; their conditions need not be identical. Equal values may be shown once.

Sequence of human chemokine receptor CXCR4 (human) (P61073 whole entry): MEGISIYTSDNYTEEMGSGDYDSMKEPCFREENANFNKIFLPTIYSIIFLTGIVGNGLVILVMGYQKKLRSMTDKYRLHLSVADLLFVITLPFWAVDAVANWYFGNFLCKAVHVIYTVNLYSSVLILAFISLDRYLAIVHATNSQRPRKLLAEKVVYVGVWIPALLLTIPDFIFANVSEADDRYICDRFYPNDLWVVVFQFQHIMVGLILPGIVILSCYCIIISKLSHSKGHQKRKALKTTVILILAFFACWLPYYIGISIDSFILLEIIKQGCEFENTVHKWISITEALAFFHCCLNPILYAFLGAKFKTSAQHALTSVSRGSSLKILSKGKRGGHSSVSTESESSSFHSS

On to “Human CXCR4 specific monoclonal antibody 12G5 (R&D Systems MAB170)”, for which the MCF in assay [1] is 125000; in assay [4] it was 152000. The fluorescence shift over non-transfected camelid cells in assay [2] was found to be 114 fold. Moreover, the fluorescence intensity shift of transfected over non-transfected cells in assay [3] was found to be 38 fold.
Regarding irrelevant control Nanobody (VHH), the percentage of cells remaining CD62L positive after ATP or NAD (Yac-1 cells, control) in the assay with mouse P2X7 (mouse) [5] is 2% and 20%. This substance also came in with an ELISA signal on hCXCR4 membrane vesicles over control membrane vesicles in assay [6] of 1.1. The maximum MCF value with mouse P2X7 (mouse) [7] fell in the range of 314 to 355 MCF.
